Measured values from publication PMC8501605.

Molecular target: T1, pseudokinase mixed lineage kinase domain-like (MLKL) (human (endogenous in post-mortem hippocampus)), Q8NB16
T1 chain: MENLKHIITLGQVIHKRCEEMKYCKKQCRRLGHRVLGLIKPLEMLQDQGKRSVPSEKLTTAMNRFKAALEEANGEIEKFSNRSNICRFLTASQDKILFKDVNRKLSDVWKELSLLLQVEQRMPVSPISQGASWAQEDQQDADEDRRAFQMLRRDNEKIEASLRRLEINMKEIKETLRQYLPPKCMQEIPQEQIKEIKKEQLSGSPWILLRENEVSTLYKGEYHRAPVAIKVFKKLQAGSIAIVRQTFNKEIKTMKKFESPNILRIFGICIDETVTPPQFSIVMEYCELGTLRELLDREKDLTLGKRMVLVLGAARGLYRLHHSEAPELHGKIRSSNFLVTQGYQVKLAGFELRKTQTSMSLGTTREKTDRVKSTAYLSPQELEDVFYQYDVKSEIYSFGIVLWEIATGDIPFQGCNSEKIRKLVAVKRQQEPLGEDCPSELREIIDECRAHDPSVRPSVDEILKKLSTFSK
Experiment: non-reducing gel and western blot; hippocampal grey matter extracted in native conditions (TBS, 0.1% Triton X-100), run on 7.5% gel in non-reducing conditions, blot for MLKL; AD (n = 14) and control (n = 8) cases
Conditions: remark: other sources report otherwise

stoichiometry N: 4
B1: pseudokinase mixed lineage kinase domain-like (MLKL), Q8NB16 1-471 (natural protein)
chain: T1 chain
